{"source": "IntAct's records for PubMed 21115843", "target": "notc1_mouse Notch1 (UniProt Q01705)", "data": [{"substance": "Presenilin-1 (Homo sapiens) (from UniProt P49768) D385A", "values": [{"measurement": "effect of a mutation on the interaction", "result": "disrupting interaction"}]}]}
